Measured values: the supplement of paper PMC9170038

System: MS2 coat protein
Experiment: apparent KD of MS2 coat protein; higher = weaker reporter binding
Conditions: Eterna round: R101
Experimental: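 RNA-MaP: designed FMN/MS2 RNA switches (84 nt design region) are transcribed on-chip within common flanks and titrated with SNAP-549-labelled MS2 coat protein (about 1-3000 nM) in 100 mM Tris pH 7.5, 80 mM KCl, 4 mM MgCl2, without or with 200 uM FMN. Median apparent KD per design; activation ratio = KD,OFF / KD,ON.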

Sequence | apparent KD of MS2 coat protein (input ligand: FMN 200 uM) [nM] | apparent KD of MS2 coat protein (input ligand: none) [nM]
AAAGAUUUUUAAGGAUAUGACUCCGAAACGGAGUCAGAAGGUGAGGAUCACCCAUCUAGCUCAGGGUCGAAAGACCCUGAGCAA [#SharedSequence - ExNG1-15] (puzzle (switch architecture): Exclusion NG 1) | 78.3 | 43.6
AAAUAAUCCUCAGGAUAUGACUCCGAAACGGAGUCAGAAGGGAGGAUCACCCUCUUCAGCUCAGCGUCGAAAGACGCUGAGCAA [#SharedSequence ExNG1 - 23] (puzzle (switch architecture): Exclusion NG 1) | 11.9 | 863
AAAUGAUAUCAGAAGGCGUGGACGAAACGUCCACGAGGAUAUGAGGAUCACCCAUAUCAGGUCAGCCUGCAAAGCAGGCUGACC [#SharedSequence - IExNG1: 7-2] (puzzle (switch architecture): Inverted Exclusion NG 1) | 126 | 15.6
AAGUACAAGCAGAAGGCACAUGAGGAUCACCCAUGUCGGGCGUCCUGUAAGUGAGGAUAUGCUAAGUGACGGCCGCCUUGGCGG [Adienare] (puzzle (switch architecture): Inverted Small Loop Exclusion NG 1) | 22.6 | 383
AAUAAAAUUCUAGGAUAUGACUCCGAAACGGAGUCAGAAGGAGGAUCACCCUUUCAAAGCUCAGCGUCGAAAGACGCUGAGCAA [#SharedSequence - ExNG1-19] (puzzle (switch architecture): Exclusion NG 1) | 1160 | 155
AAUAAUCUUUAAGGAUAUGACUCCGAAACGGAGUCAGAAGGUGAGGAUCACCCACCUAGCUCAGGGUCGAAAGACCCUGAGCAA [#SharedSequence - ExNG1-9] (puzzle (switch architecture): Exclusion NG 1) | 10.6 | 9.5
AAUUAAAUCCUAGGAUAUGACUCCGAAACGGAGUCAGAAGGAGGAUCACCCUUUCAAAGCUCAGCGUCGAAAGACGCUGAGCAA [#SharedSequence - ExNG1-17] (puzzle (switch architecture): Exclusion NG 1) | 82.9 | 649
ACACAUGAGGAUCACCCAUGUAGCCGGCGUCUGCGCCAGCCACAGGAUAUACGGCAACACAAGCCGUAGAAGGGUGAUAAACAC [Lalearledi] (puzzle (switch architecture): Same State NG 3) | 33.9 | 49.1
AGAGCUGCUCAGAAGGAGGAUCACCCUUUCGAAAGAAAUACGGAGGCUGAAAAGCCUCCGAGAUUUUAGGAUAUGAGCAGCUCA [#SharedSequence - IExNG2: 8] (puzzle (switch architecture): Inverted Exclusion NG 2) | 89.1 | 74.5
AGCUAUGACAUGAGGAUCACCCAUGUAUACAUGGGAUUGACGUAGGAUAUGCUGAAGAUUAAAGUGCAGAAGGACGGCUUAGCG [JR #DistanceFar #Hairpin #NP SSNG3 Sub065] (puzzle (switch architecture): Same State NG 3) | 512 | 1250
AUCAGCUCGUGAGGAUAUACGUCACUGCGUCAGCAGUGUGGUAAGAUCACAUGAGGAUCACCCAUGUAGAAGGCACGAGCUGAU [#FlippingAptamerGcClosingBasepair - Ex NG2 #82] (puzzle (switch architecture): Exclusion NG 2) | 539 | 23.6
CACCUAAAUCCUAGAGGAUCACCCUAGGAUAUCACCGUCGAGGUGCCAUAAUGGCACCUCGACGGUGAGAAGGAGGAAAAAUAA [#SharedSequence - SLExNG3: 10] (puzzle (switch architecture): Small Loop Exclusion NG 3) | 5.85 | 4.95
CACCUAAAUCCUAGAGGAUCACCCUAGGAUAUCACCGUCGAGGUGCCAUAAUGGCACCUCGACGGUGAGAAGGAGGGUGAAAUA [#SharedSequence - SLExNG3: 8] (puzzle (switch architecture): Small Loop Exclusion NG 3) | 6.49 | 5.08
CCGACGUUUCAGAAGGCACUCGCAUAAUGCGAGUGAGGAUAUGAGGAUCACCCAUAUCAUCGUCGGAGUCACCGAAACGGUGAC [#SharedSequence - IEx NG 3-2] (puzzle (switch architecture): Inverted Exclusion NG 1) | 12.4 | 7.89
CCUGCACCUCAAGGAUAUCCAGUCGUUUCGACUGGAGAAGGUGAGGAUCACCCAUCUAGCCUGACGUUUGUCAGGCAUGCAGGU [#AddUracilToBrourdLoops 5 - Jieux - Exclusion NG1] (puzzle (switch architecture): Exclusion NG 1) | 929 | 398
CGCAUAGACAUGAGGAUCACCCAUGUAUAAAUAGGAUUAACGUAGGAUAUGCAGAAGAUUAAAGUGCAGAAGGACGGCUUUGCG [JR #DistanceFar #NP SSNG3 Sub070] (puzzle (switch architecture): Same State NG 3) | 7.52 | 11.5
CGCUAUUACAUGAGGAUCACCCAUGUAUAUAUGGGAUUUUCGUAGGAUAUGCAGAAGAUUAAAGUGCAGAAGGACGGAAUAGCG [JR #DistanceClose #Static #NP SSNG3 Sub066] (puzzle (switch architecture): Same State NG 3) | 31.9 | 46.9
CUGGUUGUCGUAGGAUAUGUAGGAUAUUCCUACAUGAGGAUCACCCAUGUUCGCAUGGAAGAAGGACAGAAGGACGAUGACCAG [salish99_SSNG2_013 #endbits investigation] (puzzle (switch architecture): Same State NG 2) | 9.22 | 1320
CUUACUUUGUAGAAGGGUGACAUGAGGAUCACCCAUGUGCGUCGCCUGGAAGACCAGGGUACGCCACAGGAUAUACAAAGUAAG [Gesoesla] (puzzle (switch architecture): Inverted Same State NG 2) | 113 | 119
GAAAUAUAGUCAGGAUAUCAGGACAUGAGGAUCACCCAUGUACUGAAUGGGCUGGUGAAAAGAGAUGAGAAGGGACACACUAGA [EternaBot874] (puzzle (switch architecture): Exclusion NG 2) | 5.79 | –
GCAGCUAAUGCAGGAUAUCAGCACGUGUAGUGCUGAGAAGGGCACAUGAGGAUCACCCAUGUGAUCAAUUAAUAUUAAUGCUGC [jl-eng1-3.00 #ENG1/11-B3_NECK] (puzzle (switch architecture): Exclusion NG 1) | 41.6 | 13
GCAGCUAAUGCAGGAUAUCAGCACGUGUAGUGCUGAGAAGGGCACAUGAGGAUUCUGACUGUGAUCAAUUAAUAUUAAUGCUGC [salish99#hingeEx3_55-58_005] (puzzle (switch architecture): Exclusion NG 1) | 14.8 | 29.2
GCCAUCGCAUGAGGAUAUGCUCGGGUUUCCCGAGCAGAAGGCAUGUCAUAAGACAUGAGGAUCACCCAUGUAGUUAAGAUGGCA [#HiddenHairpinInALoop - Mat - Same State NG 1 - JL mod - D3] (puzzle (switch architecture): Same State NG 1) | 12.7 | 289
GGAGAAACAUGAGGAUCACCCAUGUAGGAUAUCGGGCCCGGGCCCGGCGAAAGCCGGGCCCGGGACGAGAAGGGCGUAAACACC [#LOL] (puzzle (switch architecture): Small Loop Exclusion NG 3) | 8.72 | 8.74
GGCAGCACUUAGAAGGGAGUGCGAUAAUCGCACUCAGGAUAUGAGGAUCACCCAUAUCAAGCUGCCACUGAGGCAAAGCCUCAG [#SharedSequence - IEx NG 4-1] (puzzle (switch architecture): Inverted Exclusion NG 1) | 9.42 | 10.6
GGGUACAUCGGAGGAUAUCAUGUAAAUACAUGAGGAUCACCCAUGUCGAUGGAGACAUCGGAGAUUGAGAAGGCCGAUGUACCG (puzzle (switch architecture): Same State NG 2) | 8.42 | 159
GGGUACAUCGGAGGAUAUCAUGUAAAUACAUGAGGAUCACCCAUGUCGAUGGAGACAUGGGAGAUUGAGAAGGCCGAUGUACCG (puzzle (switch architecture): Same State NG 2) | 31.7 | 22.5
GGUCGUCACAUUAACAUGAGGAUCACCCAUGUCAAAAGACAUGAGGAUAUGCAUCCUAAUUGGAUGCAGAAGGCAUGGACGACC (puzzle (switch architecture): Same State NG 3) | 12.5 | 216
